# In PMC7033129, “Structural basis for substrate specificity and catalysis of α1,6-fucosyltransferase” (Nature Communications, 2020):
# Molecular target: the molecule itself
# Assay: crystal structure; C2 crystals of HsFUT8 with 5 mM GDP and 5 mM G0, 1.95 Å; two molecules in the asymmetric unit, each forming a dimer with a molecule of the neighbouring asymmetric unit
protein,measurement,value
"human α1,6-fucosyltransferase (HsFUT8), residues 68–575 (enzyme, UniProt Q9BYC5 68-575, looked up, α1,6-fucosyltransferase (FUT8), human, amino acid residues 68–575 (coiled-coil, catalytic and SH3 domains); Expressed from pHLSec-12His-GFP-TEV-HsFUT8 after the vector's secretion signal; His-GFP cut off with TEV protease before crystallisation; Crystallised with GDP and the N-glycan G0; source: HEK293F, transfected, secreted into the supernatant, purified (His-Trap, TEV cleavage, second …)) RIPEGPIDQGPAIGRVRVLEEQLVKAKEQIENYKKQTRNGLGKDHEILRRRIENGAKELWFFLQSELKKLKNLEGNELQRHADEFLLDLGHHERSIMTDLYYLSQTDGAGDWREKEAKDLTELVQRRITYLQNPKDCSKAKKLVCNINKGCGYGCQLHHVVYCFMIAYGTQRTLILESQNWRYATGGWETVFRPVSETCTDRSGISTGHWSGEVKDKNVQVVELPIVDSLHPRPPYLPLAVPEDLADRLVRVHGDPAVWWVSQFVKYLIRPQPWLEKEIEEATKKLGFKHPVIGVHVRRTDKVGTEAAFHPIEEYMVHVEEHFQLLARRMQVDKKRVYLATDDPSLLKEAKTKYPNYEFISDNSISWSAGLHNRYTENSLRGVILDIHFLSQADFLVCTFSSQVCRVAYEIMQTLHPDASANFHSLDDIYYFGGQNAHNQIAIYAHQPRTADEIPMEPGDIIGVAGNHWDGYSKGVNRKLGRTGLYPSYKVREKIETVKYPTYPEAEK",binding result,binds
